Measured values as given in patent US7919584B1, “Methods and compositions for diagnosis and treatment of asthma” (Arbor Vita Corporation, priority 2005, dated 2011).
Ends that are not written are not given here. Peptide text beside a SMILES is read from it. * marks the point of attachment. Biotin = O=C1N[C@H]2[C@H](CS[C@H]2CCCCC(=O)*)N1

T1: KIAA1284 (Homo sapiens, UniProt Q9ULD6)
T1 construct: made in house; host or cells: E. coli (DH5α, BL21 or JM109)
T1 sequence (Q9ULD6 with tags, fused parts or gaps): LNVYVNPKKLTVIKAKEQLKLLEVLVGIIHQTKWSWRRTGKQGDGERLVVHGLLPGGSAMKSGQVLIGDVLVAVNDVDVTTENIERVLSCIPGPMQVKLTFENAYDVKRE

T2: GST-TIP2 PDZ domain fusion protein (human, UniProt O14908 118-223)
T2 construct: domain: PDZ domain; not shown: glutathione-S transferase (GST) encoded by the pGEX-3X vector (Pharmacia); short vector-encoded linker
T2 sequence (looked up): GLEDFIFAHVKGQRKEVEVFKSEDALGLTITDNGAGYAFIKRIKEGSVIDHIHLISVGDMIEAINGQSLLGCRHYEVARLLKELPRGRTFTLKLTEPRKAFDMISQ


Columns and labels:
[1] = biological target: T1, KIAA1284; assay: modified G assay titration, peptide vs constant GST-PDZ domain fusion; type: binding
Experimental: (§1) A Nunc Maxisorp 96 well Immunoplate (Nunc cat#62409-002) was coated with 100 μl of 5 μg/ml goat anti-GST polyclonal antibody (Amersham Pharmacia cat#27-457-01) and incubated overnight at 4° C. The plate was blocked by addition of 200 μl Assay Buffer (2% bovine serum albumin in PBS, pH 7.4) for 1 to 2 hours at room temperature, then washed three times in Assay Buffer.
(§2) 50 μl per well of GST-PDZ fusion proteins (5 μg/ml in Assay Buffer), or, as a negative control, GST polypeptide alone, was added to the plate, and incubated for 1 to 2 hours at 4° C.
(§3) Biotinylated peptides were prepared in Assay Buffer, in half the volume required at 40 μM. HRP-Streptavidin (Zymed cat#43-4323) was diluted 1:1000 in another half volume of Assay Buffer, then mixed with the peptides. The peptide-HRP mixtures were incubated for 20 minutes at room temperature. […]
(§4) The plate was then washed five times with room temperature PBS, and developed by addition of 100 μl/well of HRP substrate solution (3,3′,5,5′, tetramethylbensidine (TMB) (Dako cat#S1600)) for a maximum of 30 minutes in the dark at room temperature. The reaction of HRP and its substrate was terminated by addition of 100 μl of 0.18 M H2SO4 (Sigma cat#S1526), and the absorbance of each well of the plate was read at 450 nm.

[2] = biological target: T3, GORASP1 d1 (Homo sapiens, UniProt Q9BQQ3); assay: as above; type: binding
T3 construct: made in house; host or cells: E. coli (DH5α, BL21 or JM109)
T3 sequence (Q9BQQ3 1-110): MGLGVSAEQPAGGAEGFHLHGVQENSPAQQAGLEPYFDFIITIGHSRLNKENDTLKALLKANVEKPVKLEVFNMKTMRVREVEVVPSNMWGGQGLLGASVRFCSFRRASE
Experimental: as §1, §2, §3, §4

[3] = biological target: T4, GST-PSD95 d2 (PDZ domain 2) fusion protein (human, UniProt P78352 147-253); assay: modified G assay, peptide titrated against a constant amount of immobilized GST-PDZ fusion; Hill fit
T4 construct: domain: d2; not shown: glutathione-S transferase (GST) encoded by the pGEX-3X vector (Pharmacia); short vector-encoded linker
T4 sequence (P78352 147-253): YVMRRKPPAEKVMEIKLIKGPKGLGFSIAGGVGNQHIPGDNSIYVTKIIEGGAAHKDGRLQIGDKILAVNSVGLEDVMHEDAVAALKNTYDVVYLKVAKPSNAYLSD

[4] = biological target: T5, GST-GORASP1 (PDZ #1) fusion protein (human, UniProt P08515 1-218 = GST); assay: as above
T5 construct: also called GORASP1 d1; GRASP1; not shown: short vector-encoded linker (Gly-Ile, Gly-Ile-Pro-Gly-Asn or Gly-Ile-Pro, by cloning site); which one in this construct
T5 sequence (P08515 1-218, tags or fused parts left off): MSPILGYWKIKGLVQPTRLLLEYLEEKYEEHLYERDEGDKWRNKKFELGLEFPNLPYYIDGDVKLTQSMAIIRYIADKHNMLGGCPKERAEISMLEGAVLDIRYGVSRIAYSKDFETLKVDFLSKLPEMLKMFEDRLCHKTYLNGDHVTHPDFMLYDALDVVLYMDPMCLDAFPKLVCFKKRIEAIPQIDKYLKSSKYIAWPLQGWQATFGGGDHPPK

[5] = biological target: T2, GST-TIP2 PDZ domain fusion protein; assay: as above
Experimental: 50 µl per well of GST-PDZ fusion proteins (5 µg/ml in Assay Buffer), or, as a negative control, GST polypeptide alone, was added to the plate, and incubated for 1 to 2 hours at 4° C.
Biotinylated peptides were prepared in Assay Buffer, in half the volume required at 40 µM. […] The peptide-HRP mixtures were incubated for 20 minutes at room temperature. The plate was washed three times with cold PBS, the peptide-HRP mixtures added at 50 µl per well, and the plate was incubated at room temperature for precisely 30 minutes after the addition of the last peptide.

[6] = biological target: T6, GST-KIAA1284 PDZ domain fusion protein (human, UniProt P08515 1-218 = GST); assay: as above
T6 construct: also called PDZK6; not shown: short vector-encoded linker
T6 sequence (P08515 1-218, tags or fused parts left off): as above

| Molecule | EC50 [1] | EC50 [2] | EC50 [3] | EC50 [4] | EC50 [5] | EC50 [6] |
| --- | --- | --- | --- | --- | --- | --- |
| CC[C@H](C)[C@H](NC(=O)[C@H](CCCNC(=N)N)NC(=O)[C@H](CCCNC(=N)N)NC(=O)[C@H](CCCNC(=N)N)NC(=O)[C@H](CCC(N)=O)NC(=O)[C@H](CCCNC(=N)N)NC(=O)[C@H](CCCNC(=N)N)NC(=O)[C@H](CCCCN)NC(=O)[C@H](CCCCN)NC(=O)[C@H](CCCNC(=N)N)NC(=O)CNC(=O)[C@H](Cc1ccc(O)cc1)NC(=O)CCCC[C@@H]1SC[C@@H]2NC(=O)N[C@@H]21)C(=O)NCC(=O)N[C@@H](CCC(=O)O)C(=O)N[C@@H](CC(C)C)C(=O)N[C@@H](CCC(N)=O)C(=O)N[C@@H](CC(C)C)C(=O)N[C@@H](CO)C(=O)N[C@H](C(=O)N[C@@H](C)C(=O)O)[C@@H](C)CC [Tat-hCLCA1] (HELM PEPTIDE1{[O=C1N[C@H]2[C@H](CS[C@H]2CCCCC(=O)[*:2])N1].Y.G.R.K.K.R.R.Q.R.R.R.I.G.E.L.Q.L.S.I.A}$$$$V2.0) | 74 nM | 120 nM | – | – | – | – |
| Biotin-YGRKKRRQRRRIGELQLSIA (Synthetic peptide, HPLC purified; pre-mixed with HRP-streptavidin in the modified G assay; also called Tat-hCLCA1 (SIA)) | – | – | 3100 nM | 120 nM | 1100 nM | 74 nM |
